Laboratory results: US20190367628A1 (Novartis, published 2019)

How the values were obtained:
Cyno BCMA APP-Avi [1] = biological target: T1, Cyno BCMA APP-Avi (cynomolgus, biotinylated (site not stated)); experiment: flow cytometry of single yeast clone displaying the scFv, labelled with 20 nM biotinylated cyno BCMA, streptavidin/neutravidin-DyLight 633 detection
T1 construct: It was used as soluble biotinylated antigen; also called biotinylated cyno BCMA
Description: (§1) For the fourth round of screening, yeast from the third round output were pelleted, washed, and resuspended in 200 mL SD-ura broth with 1% raffinose, 2% galactose, and incubated for 22 hours at 20° C. to induce expression. […] The first sample was incubated with human BCMA for 45 min at room temperature, pelleted, washed twice with PBSF, and then resuspended in 1 mL PBSF (PBS with 0.1% BSA). The second sample was incubated with human BCMA for 45 minutes at room temperature. Both samples were pelleted, washed twice with PBSF, and resuspended in 200 uL of PBSF+a 1:30 dilution of rabbit anti-cMyc-FITC (Abcam)+a 1:100 dilution of neutravidin-dylight 633 (Invitrogen). Samples were incubated at 4 C for 30 min, pelleted, washed twice with PBSF, resuspended in 3 mL PBSF, filtered through 40 um filters, then sorted using flow cytometry on a FACS Aria cell sorter (Becton Dickinson Biosciences, San Jose, Calif.). Approximately 5×10⁵ yeast were isolated and resuspended in 4 mL SD-ura broth with 2% glucose and grown overnight at 30° C.
(§2) Each sample plate was used to create three test plates for flow cytometric analysis. […] Labeling was essentially as above for sorting, except using 1:200 each streptavidin-dylight 633 (Invitrogen) and neutravidin-dylight 633 (Invitrogen) in PBSF as secondary reagent and excluding any anti-cMyc antibody. The test plates were analyzed on a Cytoflex flow cytometer (Beckman Coulter, Brea, Calif.)

Cyno BCMA APP-Avi [2] = biological target: T1, Cyno BCMA APP-Avi; experiment: flow cytometry of single yeast clone displaying the scFv, labelled with 900 pM biotinylated cyno BCMA, streptavidin/neutravidin-DyLight 633 detection
Description: as §1, §2

Human BCMA-His-APP-Avi = biological target: T2, Human BCMA-His-APP-Avi (human, biotinylated (captured on streptavidin plate; site not stated)); experiment: monoclonal phage ELISA, anti-M13-HRP, Abs450 against fold dilution of phage
T2 construct: also called His-APP-Avi-tagged human BCMA
T2 chain: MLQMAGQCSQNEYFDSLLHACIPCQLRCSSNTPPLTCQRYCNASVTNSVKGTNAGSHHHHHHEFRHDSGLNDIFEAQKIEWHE

[3] = biological target: T3, human BCMA (antigen of the surface plasmon resonance measurement of PI-61) (human, UniProt Q02223 1-54, limits assumed); experiment: surface plasmon resonance
T3 construct: Construct used in the SPR experiment is not described
T3 sequence (looked up): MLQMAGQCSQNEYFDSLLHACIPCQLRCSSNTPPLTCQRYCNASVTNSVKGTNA

[4] = biological target: T4, cynomolgus BCMA (antigen of the surface plasmon resonance measurement of PI-61) (cynomolgus, UniProt A0A2K5UD97 1-53); experiment: surface plasmon resonance
T4 construct: Construct used in the SPR experiment is not described; also called cyno BCMA; not shown: The carrier or tag of the soluble cyno BCMA used in SPR

recombinant human BCMA = biological target: T5, recombinant human BCMA (human, UniProt Q02223 1-54, limits assumed); experiment: solution equilibrium titration (SET, MSD); apparent KD; bispecific at a fixed concentration, BCMA titrated in solution
T5 construct: The SET method says only 'recombinant human BCMA'; also called hBCMA; TNFRSF17
T5 sequence (looked up): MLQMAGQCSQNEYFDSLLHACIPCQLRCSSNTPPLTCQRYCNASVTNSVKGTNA

[5] = biological target: T6, recombinant cynomolgus monkey BCMA (cynomolgus monkey, UniProt A0A2K5UD97 1-53); experiment: as above
T6 construct: The SET method says only 'recombinant cynomolgus monkey BCMA'; also called Cyno BCMA; cynoBCMA

T1 sequence (chain, as listed by the source limits assumed): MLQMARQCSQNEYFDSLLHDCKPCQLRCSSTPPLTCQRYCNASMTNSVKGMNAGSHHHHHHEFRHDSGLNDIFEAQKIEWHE
T4 sequence (A0A2K5UD97 entry or part of it limits assumed): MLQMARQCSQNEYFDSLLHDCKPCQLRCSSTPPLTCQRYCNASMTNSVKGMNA

B1: H2/L2-36 scFv (scFv)
scFv: QAQLQSSGGGVVQPGRSLRLSCAASGFTFSSYGMHWVRQAPGKGLEWVAVISYKGSNKYYADSVKGRFTISRDNSKNTLYLQMNSLRAEDTAVYYCGGSGYALHDDYYGLDVWGQGTLVTVSSSGGGGSGGGGSGGGGSGGGGSQSALTQPASVSGSPGQSITISCTGTSSDVGGYNYVSWYQQHPGKAPKLMIYEVSNRLRGVSNRFSGSKFGNTASLTISGLQAEDEADYYCSSYTSSSTLYVFGSGTKVTVL
MFI (Cyno BCMA APP-Avi [1]): 6430 MFI
MFI (Cyno BCMA APP-Avi [2]): 5590 MFI

B2: H2/L2-88 scFv (scFv)
scFv: QVQLQSSEGGVVQPGRSLRLSCAASGFTFSSYGMHWVRQAPGKGLEWVAVISYKGSNKYYADSVKGRFTISRDNSKNTLYLQMNSLRAEDTAVYYCGGSGYALHDDYYGLDVWGQGTLVTVSSSGGGGSGGGGSGGGGSGGGGSQSALTQPASVSGSPGQSITISCTGTSSDVGGYNYVSWYQQHPGKAPKLMIYEVSNRLRGVSNRFSGSKFGNTASLTISGLQAEDEADYYCSSYTSSSALYVFGSGTKVTVL
MFI (Cyno BCMA APP-Avi [1]): 4480 MFI
MFI (Cyno BCMA APP-Avi [2]): 6440 MFI

B3: H2/L2-34 scFv (scFv)
scFv: QVQLQDSEGGVVQPGRSLRLSCAASGFTFSSYGMHWVRQAPGKGLEWVAVISYTGTKKYYADSVKGRFTISRDNSKNTLYLQMNSLRAEDTAVYYCGGSGYALHDDYYGLDVWGQGTLVTVSSSGGGGSGGGGSGGGGSGGGGSQSALTQPASVSGSPGQSITISCTGTSSDVGGYNYVSWYQQHPGKAPKLMIYDVSNRPWGVSNRFSGSKFGNTASLTISGLQAEDEADYYCSSYTSSSALYVFGSGTKVTVM
MFI (Cyno BCMA APP-Avi [1]): 10400 MFI
MFI (Cyno BCMA APP-Avi [2]): 6050 MFI

B4: H2/L2-20 scFv (scFv)
scFv: QAQLQSSGGGVVQPGRSLRLSCAASGFTVSSYGMHWVRQAPGKGLEWVAVISYTGSNKYYADSVKGRFTISRDNSKNTLYLQMNSLRAEDTAVYYCGGSGYALHDDYYGLDVWGQGTLVTVSSSGGGGSGGGGSGGGGSGGGGSQSALTQPASVSGSPGQSITISCTGTSSDVGGYNYVSWYQQHPGKAPKLMIYDVSNRLRGVSNRFSGSKFGNTASLTISGLQAEDEADYYCSSYTSSSALYVFGSGTKVTVL
MFI (Cyno BCMA APP-Avi [1]): 20700 MFI
MFI (Cyno BCMA APP-Avi [2]): 7030 MFI

B5: H2/L2-68 scFv (scFv)
scFv: QAQLQSSEGGVVQPGRSLRLSCAASGFTFSSYGMHWVRQAPGKGLEWVAVISYRGFNKYYADSVKGRFTISRDNSKNTLYLQMNSLRAEDTAVYYCGGSGYALHDDYYGQDVWGQGTLVTVSSSGGGGSGGGGSGGGGSGGGGSQSALTQPASVSGSPGQSITISCTGTSSDVGGYNYVSWYQQHPGKAPKLMIYDVSNRLSGVSNRFSGSKFGNTASLTISGLQAEDEADYYCSSYTSSSTLYVFGSGTKVTVL
MFI (Cyno BCMA APP-Avi [1]): 16200 MFI
MFI (Cyno BCMA APP-Avi [2]): 7380 MFI

B6: H2/L2-83 scFv (scFv)
scFv: QAQLQGSGGGVVQPGRSLRLSCAASGFTFSSYGMHWVRQAPGKGLEWVAVISYKGSNKYYADSVKGRFTISRDNSKNTLYLQMNSLRAEDTAVYYCGGSGYALHDDYYGLDVWGQGTLVTVSSSGGGGSGGGGSGGGGSGGGGSQSALTQPASVSGSPGQSITISCTGTSSDVGGYNYVSWYQQHPGKAPKLMIYEVSNRLRGVSNRFSGSKFGNTASLTISGLQAEDEADYYCSSYTSSSTLYVFGSGTKVTVL
MFI (Cyno BCMA APP-Avi [1]): 10700 MFI
MFI (Cyno BCMA APP-Avi [2]): 4880 MFI

B7: H2/L2-80 scFv (scFv)
scFv: QVQLQSSGGGVVQPGRSLRLSCAASGFTFSSYGMHWVRQAPGKGLEWVAVISYTGSNKYYADSVKGRFTISRDNSKNTLYLQMNSLRAEDTAVYYCGGSGYALHDDYYGLDVWGQGTLVTVSSSGGGGSGGGGSGGGGSGGGGSQSALTQPASVSGSPGQSITISCTGTSSDVGGYNYVSWYQQHPGKAPKLMIYDVSNRAWGVSNRFSGSKFGNTASLTISGLQAEDEADYYCSSYTSSSALYVFGSGTKVTVL
MFI (Cyno BCMA APP-Avi [1]): 17900 MFI
MFI (Cyno BCMA APP-Avi [2]): 6540 MFI

B8: H2/L2-47 scFv (scFv)
scFv: QVQLQSSEGGVVQPGRSLRLSCAASGFTFSSYGMHWVRQAPGKGLEWVAVISYKGSNKYYADSVKGRFTISRDNSKNTLYLQMNSLRAEDTAVYYCGGSGYALHDDYYGLDVWGQGTLVTVSSSGGGGSGGGGSGGGGSGGGGSQSALTQPASVSGSPGQSITISCTGTSSDVGGYNYVSWYQQHPGKAPKLMIYDVSNRPWGVSNRFSGSKFGNTASLTISGLQAEDEADYYCSSYTSSSTLYVFGSGTKVTVL
MFI (Cyno BCMA APP-Avi [1]): 14200 MFI
MFI (Cyno BCMA APP-Avi [2]): 5930 MFI

B9: H2/L2-18 scFv (scFv)
scFv: QAQLQGSGGGVVQPGRSLRLSCAASGFTFSSYGMHWVRQAPGKGLEWVAVISYKGSHKYYADSVKGRFTISRDNSKNTLYLQMNSLRAEDTAVYYCGGSGYALHDDYYGLDVWGQGTLVTVSSSGGGGSGGGGSGGGGSGGGGSQSALTQPASVSGSPGQSITISCTGTSSDVGGYNYVSWYQQHPGKAPKLMIYDVSNRPWGVSNRFSGSKFGNTASLTISGLQAEDEADYYCSSYTSSSTLYVFGSGTKVTVL
MFI (Cyno BCMA APP-Avi [1]): 19900 MFI
MFI (Cyno BCMA APP-Avi [2]): 7180 MFI

B10: PI-61 (monoclonal phage clone) (other)
VH: QVQLQESGGGVVQPGRSLRLSCAASGFTFSSYGMHWVRQAPGKGLEWVAVISYDGSNKYYADSVKGRFTISRDNSKNTLYLQMNSLRAEDTAVYYCGGSGYALHDDYYGLDVWGQGTLVTVSS
VL: QSALTQPASVSGSPGQSITISCTGTSSDVGGYNYVSWYQQHPGKAPKLMIYDVSNRPSGVSNRFSGSKSGNTASLTISGLQAEDEADYYCSSYTSSSTLYVFGSGTKVTVL
binding result (Human BCMA-His-APP-Avi): binds

B11: PI-61 antibody (as measured by surface plasmon resonance) (antibody, V domains shown)
VH: QVQLQESGGGVVQPGRSLRLSCAASGFTFSSYGMHWVRQAPGKGLEWVAVISYDGSNKYYADSVKGRFTISRDNSKNTLYLQMNSLRAEDTAVYYCGGSGYALHDDYYGLDVWGQGTLVTVSS
VL: QSALTQPASVSGSPGQSITISCTGTSSDVGGYNYVSWYQQHPGKAPKLMIYDVSNRPSGVSNRFSGSKSGNTASLTISGLQAEDEADYYCSSYTSSSTLYVFGSGTKVTVL
notes: also called parental clone
Kd [3]: ~34 nM
Kd [4]: ~240 nM

B12: BCMA-CD3 bispecific antibody AB3 (bispecific antibody)
chain 1: not shown
chain 2: QSALTQPASVSGSPGQSITISCTGTSSDVGGYNYVSWYQQHPGKAPKLMIYDVSNRLRGVSNRFSGSKSGNTASLTISGLQAEDEADYYCSSYTSSSALYVFGSGTKVTVLGQPKAAPSVTLFPPSSEELQANKATLVCLISDFYPGAVTVAWKADSSPVKAGVETTTPSKQSNNKYAASSYLSLTPEQWKSHRSYSCQVTHEGSTVEKTVAPTECS
chain 3: not shown
Kd (recombinant human BCMA): 0.0615 nM
Kd [5]: 0.105 nM
